Data from publication PMC3205914 (Nature cell biology, 2010).

What was measured:
light scattering = molecular target: the molecule itself; experiment: light scattering
[1] = molecular target: T1, ParB (Caulobacter crescentus centromere-binding protein), immobilized for SPR (C. crescentus, UniProt B8GW30 1-304); experiment: SPR
T1 sequence (looked up): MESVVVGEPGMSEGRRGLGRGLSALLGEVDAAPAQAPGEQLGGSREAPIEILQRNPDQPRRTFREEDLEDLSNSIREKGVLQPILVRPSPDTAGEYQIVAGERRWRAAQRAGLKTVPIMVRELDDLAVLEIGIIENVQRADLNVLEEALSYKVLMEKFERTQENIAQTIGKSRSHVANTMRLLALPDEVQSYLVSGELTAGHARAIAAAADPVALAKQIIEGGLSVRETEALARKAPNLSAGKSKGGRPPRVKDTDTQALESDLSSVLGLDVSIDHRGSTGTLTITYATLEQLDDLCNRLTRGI

[2] = molecular target: T2, 6His–ParB (Caulobacter crescentus) (C. crescentus, UniProt B8GW30 1-304); experiment: SPR
T2 sequence (looked up): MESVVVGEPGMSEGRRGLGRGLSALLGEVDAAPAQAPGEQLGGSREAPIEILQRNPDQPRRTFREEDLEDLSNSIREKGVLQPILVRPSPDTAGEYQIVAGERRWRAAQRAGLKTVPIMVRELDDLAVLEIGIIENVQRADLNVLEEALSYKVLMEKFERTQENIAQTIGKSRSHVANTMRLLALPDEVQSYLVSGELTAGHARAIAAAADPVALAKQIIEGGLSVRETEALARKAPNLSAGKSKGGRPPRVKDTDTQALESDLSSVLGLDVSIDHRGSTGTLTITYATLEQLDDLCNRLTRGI

binding result [1]: binds | binding result [2]: binds
B1: ParA (Caulobacter crescentus ATPase ParA), purified (enzyme, C. crescentus, UniProt B8GW31 1-267, looked up)
chain: MSANPLRVLAIANQKGGVGKTTTAINLGTALAACGERVLLIDADPQGNCSTGLGIGRTQRRTTLYDVLMGEAPVVDAAVKTELPGLDVIPADADLSGVEIELGQTARRSYRLRDALEAIRANGPYTYVLIDCPPSLNVLTVNAMTAADAVFVPLQCEFFALEGLTQLMRTIERVRGSLNPRLEIQGVVLTMYDRRNSLSEQVAKDVRAHFGDKVYDAVIPRNVRVSEAPSFGKPVLLYDLKCAGSQAYLKLAREVISRERDRQAKAA
binding result (light scattering): binds
